Assay results reported in the RNAGym collection of RNA variant scans (doi:10.7554/elife.80360).

B1: Hairpin Ribozyme (parent)
chain: GUCCUCUUUCACGUGCGCGUGAAAGAGAGAAGUGAACCAGAGAAACACACGUUGUGGUAUAUUACCUGGUA

Variants of: B1
Test: self-cleavage, relative activity (ratio to wild type); higher = more cleavage; co-transcriptional

| Variant | self-cleavage |
| --- | --- |
| A64U G68U | 0.23 |
| A59U U60C | 0.257 |
| A59U U60G | 0.172 |
| U60C U67A | 0.324 |
| A64C U70A | 0.4 |
| A59U U67C | 0.11 |
| U63C A71C | 0.578 |
| A61G U63A | 0.144 |
| A61G U63G | 0.0586 |
| A61G U63C | 0.253 |
| A61C U62G | 0.102 |
| A61C U62A | 0.143 |
| A61C A71U | 0.164 |
| A61C A71C | 0.285 |
| A64G C66A | 0.211 |
| A64G C66U | 0.109 |
| C65G U67A | 0.0982 |
| U63G A71G | 0.226 |
| U63G A71C | 0.565 |
| A59G A61C | 0.39 |
| C65G G69C | 0.219 |
| C65G G69U | 0.156 |
| U62A A71G | 0.211 |
| A61G C65U | 0.192 |

| Variant | self-cleavage |
| --- | --- |
| U62A A64C | 0.164 |
| A59C A61G | 0.207 |
| A59C A61C | 0.0887 |
| A64U G69U | 0.281 |
| U62A U70C | 0.219 |
| U62A U67C | 0.134 |
| U62A U67A | 0.134 |
| U58C A64U | 0.0829 |
| U60G U67C | 0.121 |
| U60G A64U | 0.202 |
| U62C | 0.268 |
| U62A | 0.185 |
| U62G | 0.179 |
| C66G A71G | 0.16 |
| C66G A71U | 0.168 |
| C66G A71C | 0.35 |
| U60C C65A | 1.34 |
| C65G U70A | 0.197 |
| A59C U62G | 0.123 |
| A59C U62C | 0.0999 |
| U60C A64G | 0.614 |
| C66A U67A | 0.234 |
| C65U A71C | 0.774 |
| C65U A71G | 0.467 |

| Variant | self-cleavage |
| --- | --- |
| U58C U60G | 0.742 |
| C65A G68U | 0.292 |
| C65A G68C | 0.224 |
| C65G C66A | 0.142 |
| U63C U67C | 0.148 |
| U63C U67G | 0.111 |
| U63C U67A | 0.21 |
| U67A A71U | 0.194 |
| U67A A71G | 0.196 |
| U63G G68A | 0.281 |
| U63G G68U | 0.225 |
| C65G G68U | 0.102 |
| C65G G68A | 0.254 |
| A61C G68C | 0.153 |
| C65A G69U | 0.235 |
| C65A G69C | 0.224 |
| U67C G69U | 0.147 |
| U62C U67C | 0.121 |
| U62C U67G | 0.265 |
| U63C C66G | 0.244 |
| U63C C66U | 0.165 |
| U62G G68A | 0.263 |
| U60A G69U | 0.129 |
| U60A G69A | 0.183 |

| Variant | self-cleavage |
| --- | --- |
| U60A G69C | 0.336 |
| U62A U63A | 0.12 |
| U62A U63G | 0.112 |
| U62A U63C | 0.113 |
| C66A U70A | 0.279 |
| C66A | 0.218 |
| C66U | 0.527 |
| C66G | 0.181 |
| U58G G68A | 0.208 |
| U58G G68C | 0.178 |
| U63G U67G | 0.134 |
| U63C U70C | 0.19 |
| U60G A71G | 0.672 |
| U60G A71C | 1.01 |
| A61C A64U | 0.179 |
| A61C A64G | 0.185 |
| U60A U67A | 0.198 |
| A59G A64G | 0.176 |
| A59G A64C | 0.273 |
| A61U U63G | 0.187 |
| A61U U63C | 0.0398 |
| U62C G69U | 0.169 |
| A59C U60C | 0.167 |
| G68C G69U | 0.17 |

| Variant | self-cleavage |
| --- | --- |
| U60G G68A | 0.201 |
| U67G A71U | 0.918 |
| C65A A71U | 0.7 |
| C65A A71G | 0.93 |
| A61U G69A | 0.145 |
| A61U G69U | 0.152 |
| A61U G69C | 0.283 |
| U60C G68C | 0.25 |
| G69U A71G | 0.438 |
| G69U A71C | 1.38 |
| G69U A71U | 0.362 |
| A59U A64C | 0.149 |
| A59U A64G | 0.139 |
| U62A C65G | 0.101 |
| A59C G69U | 0.131 |
| A59C G69A | 0.19 |
| A61G G68U | 0.163 |
| A61G G68A | 0.275 |
| A61G U70A | 0.154 |
| A59U U70A | 0.177 |
| C65U G69C | 0.0941 |
| C65U G69A | 0.193 |
| U62G U70G | 0.352 |
| U62G U70C | 0.18 |

| Variant | self-cleavage |
| --- | --- |
| A59C C66A | 0.0564 |
| U63C C65G | 0.117 |
| U58C C65A | 1.11 |
| U58C C65G | 0.255 |
| A61C C65U | 0.148 |
| A61C U70A | 0.204 |
| A61C U70G | 0.146 |
| A59C A64U | 0.0804 |
| U58G A64G | 0.341 |
| U58G A64C | 0.163 |
| A59G C65U | 0.18 |
| U58G G69U | 0.113 |
| U70C A71G | 1.85 |
| A64U U70C | 0.0932 |
| A64C A71U | 0.243 |
| A59U U63G | 0.218 |
| A59U U63A | 0.206 |
| U63C A64G | 0.0805 |
| U58G A59U | 0.242 |
| U58G A59C | 0.149 |
| U67A G69C | 0.258 |
| U60C U70A | 1.29 |
| G68U A71U | 0.234 |
| A61G U62A | 0.198 |

| Variant | self-cleavage |
| --- | --- |
| U60A U63C | 0.151 |
| U60A U63A | 0.164 |
| U60G A61G | 0.205 |
| A59U A61C | 0.0374 |
| A59U A61U | 0.168 |
| U58G U62G | 0.304 |
| U67G G68U | 0.192 |
| A61C C66U | 0.145 |
| A61C C66G | 0.101 |
| A61C C66A | 0.0988 |
| U62C G68U | 0.178 |
| A59G G69U | 0.15 |
| A59G G69A | 0.125 |
| U63A C65U | 0.0803 |
| U62G C66A | 0.207 |
| A61G U67G | 0.157 |
| A61G U67C | 0.113 |
| U60C C66G | 0.0763 |
| A61U C65A | 0.107 |
| A64C G69U | 0.234 |
| A64C G69A | 0.251 |
| U60C A61U | 0.296 |
| U58G A61C | 0.32 |
| U58G A61G | 0.111 |

| Variant | self-cleavage |
| --- | --- |
| A61U U62A | 0.139 |
| U58G U67G | 0.173 |
| C65U U70A | 0.379 |
| U62G G69C | 0.217 |
| U62G G69A | 0.0955 |
| U62G G69U | 0.165 |
| U60G U70C | 0.372 |
| U60G U70A | 0.572 |
| U58C G69U | 0.302 |
| U67C U70A | 0.229 |
| U67C U70G | 0.269 |
| U67C U70C | 0.279 |
| C65A U70G | 0.562 |
| C65A U70C | 0.692 |
| A61G A64G | 0.141 |
| A61G G69C | 0.156 |
| A61G G69U | 0.128 |
| A64G U70C | 0.61 |
| U63G U70A | 0.0931 |
| G68C U70A | 0.143 |
| A64U C65A | 0.187 |
| A64U C65U | 0.194 |
| C65A C66U | 0.508 |
| A61U A64G | 0.121 |

| Variant | self-cleavage |
| --- | --- |
| A61U A64C | 0.197 |
| A59U U62A | 0.326 |
| A59U U62C | 0.185 |
| A59U U62G | 0.262 |
| A61G A71U | 0.393 |
| U58G C65U | 0.412 |
| U58G C65A | 0.816 |
| A64U U67C | 0.213 |
| A59G U67A | 0.311 |
| A59G U67G | 0.153 |
| U60A U70A | 0.61 |
| U60A U70C | 0.626 |
| G68U U70G | 0.252 |
| C66G U67A | 0.17 |
| C66G G69A | 0.185 |
| U60G C65G | 0.442 |
| U60G C65A | 0.453 |
| G69C U70C | 0.685 |
| G69C U70A | 0.437 |
| A61U G68U | 0.153 |
| C65A U67A | 0.141 |
| C65A U67C | 0.228 |
| U63A A64C | 0.0838 |
| G69U U70G | 0.299 |

| Variant | self-cleavage |
| --- | --- |
| G68A G69U | 0.172 |
| U67C G68U | 0.208 |
| U67C G68A | 0.231 |
| U60G G69U | 0.101 |
| A59C A71U | 0.156 |
| A59U C65G | 0.218 |
| A59C U63C | 0.199 |
| A59C U63G | 0.164 |
| A64U A71C | 0.494 |
| U58G C66G | 0.379 |
| U63G G69U | 0.169 |
| U63G G69A | 0.102 |
| U58G U70G | 0.575 |
| U63A C66U | 0.258 |
| U63A G69U | 0.17 |
| U58C U67C | 0.205 |
| C66U U70G | 0.297 |
| C65U C66G | 0.248 |
| A64G G69A | 0.121 |
| A64G G69C | 0.142 |
| U62A C66G | 0.188 |
| U58C A61U | 0.38 |
| A61C U63C | 0.284 |
| A61C U63G | 0.12 |

| Variant | self-cleavage |
| --- | --- |
| C65G | 0.273 |
| C65U | 0.323 |
| C65A | 0.989 |
| A59C U67C | 0.123 |
| A59C U67A | 0.241 |
| U60C G69A | 0.51 |
| A59G U70A | 0.163 |
| U58C A71C | 1.21 |
| C66A A71G | 0.196 |
| G69A A71G | 0.358 |
| A64U C66U | 0.11 |
| A59G C66G | 0.228 |
| U63A U70G | 0.151 |
| U58G U63G | 0.104 |
| A59G A71U | 0.106 |
| A59G A71G | 0.0933 |
| U62C A64G | 0.18 |
| C66G G68A | 0.123 |
| U63G C66G | 0.125 |
| A64C U67A | 0.0615 |
| C66U U67G | 0.0789 |
| U63A U67A | 0.208 |
| U63A U67G | 0.118 |
| U63A U67C | 0.14 |

| Variant | self-cleavage |
| --- | --- |
| A61C U67G | 0.24 |
| C66U G68C | 0.202 |
| U70G A71U | 1.26 |
| U70G A71C | 1.74 |
| U62C C65G | 0.132 |
| U60C U63A | 0.262 |
| A59G U62G | 0.167 |
| G68A A71C | 0.348 |
| A61G C66U | 0.277 |
| U63G C65G | 0.243 |
| U63G C65A | 0.0995 |
| A64G C65A | 0.139 |
| A64G C65U | 0.215 |
| A64G C65G | 0.101 |
| A59U A71U | 0.252 |
| A59U A71G | 0.156 |
| G68C A71U | 0.126 |
| U63A A71G | 0.221 |
| U63A A71U | 0.182 |
| A61U A71C | 0.468 |
| A61U A71G | 0.275 |
| U63C G68U | 0.351 |
| A59C U70C | 0.151 |
| A59C U70G | 0.141 |
